Assay results as given in article PMC3154423.

Legend:
Assay in all cases: ITC
[1] = target: Jun bZIP R259A;Fos bZIP K148A (human;human, UniProt P05412;P01100 252-315;137-200, R259A|K148A)
[2] = target: Jun bZIP K273A;Fos bZIP R155A (human;human, UniProt P05412;P01100 252-315;137-200, K273A|R155A)
[3] = target: Jun bZIP K268A;Fos bZIP K148A (human;human, UniProt P05412;P01100 252-315;137-200, K268A|K148A)
[4] = target: Jun bZIP K268A;Fos bZIP R157A (human;human, UniProt P05412;P01100 252-315;137-200, K268A|R157A)
Jun bZIP K268A;Fos bZIP R157A, sequence (P05412 252-315 K268A, chain 1 of 2): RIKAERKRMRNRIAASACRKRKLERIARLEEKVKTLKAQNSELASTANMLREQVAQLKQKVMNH
Jun bZIP K268A;Fos bZIP R157A, sequence (P01100 137-200 R157A, chain 2 of 2): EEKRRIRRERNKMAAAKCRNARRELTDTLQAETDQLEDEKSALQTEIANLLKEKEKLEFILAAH

[5] = target: Jun bZIP R272A;Fos bZIP K153A (human;human, UniProt P05412;P01100 252-315;137-200, R272A|K153A)
Jun bZIP R272A;Fos bZIP K153A, sequence (P05412 252-315 R272A, chain 1 of 2): as the sequence (P05412 252-315 K268A, chain 1 of 2) above, with A17K, R21A counted along it
Jun bZIP R272A;Fos bZIP K153A, sequence (P01100 137-200 K153A, chain 2 of 2): as the sequence (P01100 137-200 R157A, chain 2 of 2) above, with K17A, A21R counted along it

[6] = target: Jun bZIP R259A;Fos bZIP K153A (human;human, UniProt P05412;P01100 252-315;137-200, R259A|K153A)
Jun bZIP R259A;Fos bZIP K153A, sequence (P05412 252-315 R259A, chain 1 of 2): as the sequence (P05412 252-315 K268A, chain 1 of 2) above, with R8A, A17K counted along it
Jun bZIP R259A;Fos bZIP K153A, sequence (P01100 137-200 K153A, chain 2 of 2): as the sequence (P01100 137-200 R157A, chain 2 of 2) above, with K17A, A21R counted along it

[7] = target: Jun bZIP K268A;Fos bZIP R146A (human;human, UniProt P05412;P01100 252-315;137-200, K268A|R146A)
Jun bZIP K268A;Fos bZIP R146A, sequence (P05412 252-315 K268A, chain 1 of 2): as the sequence (P05412 252-315 K268A, chain 1 of 2) above
Jun bZIP K268A;Fos bZIP R146A, sequence (P01100 137-200 R146A, chain 2 of 2): as the sequence (P01100 137-200 R157A, chain 2 of 2) above, with R10A, A21R counted along it

[8] = target: Jun bZIP R261A;Fos bZIP R143A (human;human, UniProt P05412;P01100 252-315;137-200, R261A|R143A)
Jun bZIP R261A;Fos bZIP R143A, sequence (P05412 252-315 R261A, chain 1 of 2): as the sequence (P05412 252-315 K268A, chain 1 of 2) above, with R10A, A17K counted along it
Jun bZIP R261A;Fos bZIP R143A, sequence (P01100 137-200 R143A, chain 2 of 2): as the sequence (P01100 137-200 R157A, chain 2 of 2) above, with R7A, A21R counted along it

[9] = target: Jun bZIP R261A;Fos bZIP R144A (human;human, UniProt P05412;P01100 252-315;137-200, R261A|R144A)
Jun bZIP R261A;Fos bZIP R144A, sequence (P05412 252-315 R261A, chain 1 of 2): as the sequence (P05412 252-315 K268A, chain 1 of 2) above, with R10A, A17K counted along it
Jun bZIP R261A;Fos bZIP R144A, sequence (P01100 137-200 R144A, chain 2 of 2): as the sequence (P01100 137-200 R157A, chain 2 of 2) above, with R8A, A21R counted along it

[10] = target: Jun bZIP R263A;Fos bZIP R146A (human;human, UniProt P05412;P01100 252-315;137-200, R263A|R146A)
Jun bZIP R263A;Fos bZIP R146A, sequence (P05412 252-315 R263A, chain 1 of 2): as the sequence (P05412 252-315 K268A, chain 1 of 2) above, with R12A, A17K counted along it
Jun bZIP R263A;Fos bZIP R146A, sequence (P01100 137-200 R146A, chain 2 of 2): as the sequence (P01100 137-200 R157A, chain 2 of 2) above, with R10A, A21R counted along it

[11] = target: Jun bZIP K258A;Fos bZIP K148A (human;human, UniProt P05412;P01100 252-315;137-200, K258A|K148A)
Jun bZIP K258A;Fos bZIP K148A, sequence (P05412 252-315 K258A, chain 1 of 2): as the sequence (P05412 252-315 K268A, chain 1 of 2) above, with K7A, A17K counted along it
Jun bZIP K258A;Fos bZIP K148A, sequence (P01100 137-200 K148A, chain 2 of 2): as the sequence (P01100 137-200 R157A, chain 2 of 2) above, with K12A, A21R counted along it

[12] = target: Jun bZIP K268A;Fos bZIP R144A (human;human, UniProt P05412;P01100 252-315;137-200, K268A|R144A)
Jun bZIP K268A;Fos bZIP R144A, sequence (P05412 252-315 K268A, chain 1 of 2): as the sequence (P05412 252-315 K268A, chain 1 of 2) above
Jun bZIP K268A;Fos bZIP R144A, sequence (P01100 137-200 R144A, chain 2 of 2): as the sequence (P01100 137-200 R157A, chain 2 of 2) above, with R8A, A21R counted along it

[13] = target: Jun-Jun bZIP K268A (human, UniProt P05412 252-315, K268A)
Jun-Jun bZIP K268A, sequence (P05412 252-315 K268A): as the sequence (P05412 252-315 K268A, chain 1 of 2) above

[14] = target: Jun bZIP K258A;Fos bZIP R155A (human;human, UniProt P05412;P01100 252-315;137-200, K258A|R155A)
Jun bZIP K258A;Fos bZIP R155A, sequence (P05412 252-315 K258A, chain 1 of 2): as the sequence (P05412 252-315 K268A, chain 1 of 2) above, with K7A, A17K counted along it
Jun bZIP K258A;Fos bZIP R155A, sequence (P01100 137-200 R155A, chain 2 of 2): as the sequence (P01100 137-200 R157A, chain 2 of 2) above, with R19A, A21R counted along it

[15] = target: Jun bZIP R270A;Fos bZIP K148A (human;human, UniProt P05412;P01100 252-315;137-200, R270A|K148A)
Jun bZIP R270A;Fos bZIP K148A, sequence (P05412 252-315 R270A, chain 1 of 2): as the sequence (P05412 252-315 K268A, chain 1 of 2) above, with A17K, R19A counted along it
Jun bZIP R270A;Fos bZIP K148A, sequence (P01100 137-200 K148A, chain 2 of 2): as the sequence (P01100 137-200 R157A, chain 2 of 2) above, with K12A, A21R counted along it

[16] = target: Jun bZIP R259A;Fos bZIP R157A (human;human, UniProt P05412;P01100 252-315;137-200, R259A|R157A)
Jun bZIP R259A;Fos bZIP R157A, sequence (P05412 252-315 R259A, chain 1 of 2): as the sequence (P05412 252-315 K268A, chain 1 of 2) above, with R8A, A17K counted along it
Jun bZIP R259A;Fos bZIP R157A, sequence (P01100 137-200 R157A, chain 2 of 2): as the sequence (P01100 137-200 R157A, chain 2 of 2) above

Jun bZIP K273A;Fos bZIP R155A, sequence (P05412 252-315 K273A, chain 1 of 2): as the sequence (P05412 252-315 K268A, chain 1 of 2) above, with A17K, K22A counted along it
Jun bZIP K273A;Fos bZIP R155A, sequence (P01100 137-200 R155A, chain 2 of 2): as the sequence (P01100 137-200 R157A, chain 2 of 2) above, with R19A, A21R counted along it
Jun bZIP R259A;Fos bZIP K148A, sequence (P05412 252-315 R259A, chain 1 of 2): as the sequence (P05412 252-315 K268A, chain 1 of 2) above, with R8A, A17K counted along it
Jun bZIP R259A;Fos bZIP K148A, sequence (P01100 137-200 K148A, chain 2 of 2): as the sequence (P01100 137-200 R157A, chain 2 of 2) above, with K12A, A21R counted along it
Jun bZIP K268A;Fos bZIP K148A, sequence (P05412 252-315 K268A, chain 1 of 2): as the sequence (P05412 252-315 K268A, chain 1 of 2) above
Jun bZIP K268A;Fos bZIP K148A, sequence (P01100 137-200 K148A, chain 2 of 2): as the sequence (P01100 137-200 R157A, chain 2 of 2) above, with K12A, A21R counted along it

B1: TRE duplex 15-mer (dsDNA)
DNA 1: CGCGTGACTCACCCC
DNA 2: GGGGTGAGTCACGCG
For B1, the Kd [1] was 2260 ± 180 nM, the Kd [2] was 6790 ± 420 nM and the Kd [3] was 460 ± 20 nM. For the same binder, the Kd [4] was 600 ± 30 nM, the Kd [5] was 960 ± 110 nM and the Kd [6] was 1720 ± 150 nM. The Kd [7] was 420 ± 20 nM, the Kd [8] was 1030 ± 50 nM and the Kd [9] was 1840 ± 80 nM. It also gave a Kd [10] of 1040 ± 40 nM, a Kd [11] of 660 ± 20 nM and a Kd [12] of 1790 ± 20 nM. For the same binder, the Kd [13] was 400 ± 20 nM, the Kd [14] was 5380 ± 120 nM and the Kd [15] was 1900 ± 120 nM. It also gave a Kd [16] of 3050 ± 120 nM.
